Test results reported in publication PMC9848473, “The structure of DarB in complex with Rel^NTD reveals nonribosomal activation of Rel stringent factors” (Science Advances, 2023).

Target: full-length Bacillus subtilis Rel (RelBs) (Bacillus subtilis)
Assay: cell-based or functional assay

- rate of ^3H-ppGpp hydrolysis by RelBs saturated with DarB: 5.5 fold
B1: Bacillus subtilis DarB (natural protein, UniProt O31698 1-147, looked up)
chain: MISLQSDQLLEATVGQFMIEADKVAHVQVGNNLEHALLVLTKTGYTAIPVLDPSYRLHGLIGTNMIMNSIFGLERIEFEKLDQITVEEVMLTDIPRLHINDPIMKGFGMVINNGFVCVENDEQVFEGIFTRRVVLKELNKHIRSLNK
